Results on 5 proteins are retold here after paper PMC2790986.

B1: PON2 (paraoxonase-2), Cys311 and Ser311 variants: N254Q (printed N254G) (protein)
parent chain: MGRLVAVGLLGIALALLGERLLALRNRLKASREVESVDLPHCHLIKGIEAGSEDIDILPNGLAFFSVGLKFPGLHSFAPDKPGGILMMDLKEEKPRARELRISRGFDLASFNPHGISTFIDNDDTVYLFVVNHPEFKNTVEIFKFEEAENSLLHLKTVKHELLPSVNDITAVGPAHFYATNDHYFSDPFLKYLETYLNLHWANVVYYSPNEVKVVAEGFDSANGINISPDDKYIYVADILAHEIHVLEKHTNMNLTQLKVLELDTLVDNLSIDPSSGDIWVGCHPNGQKLFVYDPNNPPSSEVLRIQNILSEKPTVTTVYANNGSVLQGSSVASVYDGKLLIGTLYHRALYCEL
B2: PON2 (paraoxonase-2), Cys311 and Ser311 variants: N323Q (protein)
parent chain: B1 parent chain
B3: PON2 (paraoxonase-2), Cys311 and Ser311 variants: N323A (protein)
parent chain: B1 parent chain
B4: PON2 (paraoxonase-2), Cys311 and Ser311 variants: N254A/N323A (protein)
parent chain: B1 parent chain
B5: PON2 (paraoxonase-2), Cys311 and Ser311 variants: N254A (protein)
parent chain: B1 parent chain

The nature of the data set: 3OC12-HSL inactivation by CHO lysate, bioassay. Conditions: glycan lost; control: wild-type PON2 Cys311.
As for B1, the enzymatic_activity result is “no change”.

For the protein B2, the enzymatic_activity result was “decreases”.

On to B3, for which the enzymatic_activity result is “decreases”. Consider B4, for which the enzymatic_activity entry was “decreases”.

Regarding B5, the enzymatic_activity result was “no change”.
